Test results: patent US20250369013A1 (ENSOMA, published 2025)
Changes are numbered by the printed parent chain.

B1: Mutated Ad35 Knob A8: Ile192Val Ile256Val (other)
chain: LWTGINPPPNCQIVENTNTNDGKLTLVLVKNGGLVNGYVSLVGVSDTVNQMFTQKTANVQLRLYFDSSGNLLTEESDLKIPLKNKSSTATSETVASSKAFMPSTTAYPFNTTTRDSENYIHGVCYYMTSYDRSLFPLNISIMLNSRMISSNVAYAIQFEWNLNASESPESNIATLTTSPFFFSYITEDDN
B2: wtAd35(207Asp) knob (other)
chain: B1 chain with V59I, E74D, V123I
notes: also called B2
B3: Ad11 (fiber knob) (other)
chain: LWTGVNPTEANCQIMNSSESNDCKLILTLVKTGALVTAFVYVIGVSNNFNMLTTHRNINFTAELFFDSTGNLLTRLSSLKTPLNHKSGQNMATGAITNAKGFMPSTTAYPFNDNSREKENYIYGTCYYTASDRTAFPIDISVMLNRRAINDETSYCIRITWSWNTGDAPEVQTSATTLVTSPFTFYYIREDD
notes: also called B7

The binders below were run against T1, CD46 (UniProt P15529 35-343) (assay: Kd of knob for CD46; method not stated).
T1 construct: The form used in the Kd measurement is not described
T1 sequence: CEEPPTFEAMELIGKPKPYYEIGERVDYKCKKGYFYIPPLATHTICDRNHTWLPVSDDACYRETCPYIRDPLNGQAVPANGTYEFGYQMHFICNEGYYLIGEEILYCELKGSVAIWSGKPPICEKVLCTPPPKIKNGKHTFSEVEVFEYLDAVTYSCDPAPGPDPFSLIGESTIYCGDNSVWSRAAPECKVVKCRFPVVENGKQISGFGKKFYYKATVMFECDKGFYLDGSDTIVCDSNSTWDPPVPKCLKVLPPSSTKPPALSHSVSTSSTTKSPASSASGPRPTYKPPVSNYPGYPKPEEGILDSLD

Binder | Kd [nM]
B1 | 13.7
B2 | 15
B3 | 11.2
